{
  "source": "the DeepSol protein solubility set",
  "data": [
    {"test": "soluble on expression in E. coli; label from the status in PepcDB or PDB records", "values": [
      {"sequence": "MTIYQHLLILWSSLFASTFAGTAEEVAKHLELGSQFLARAQFADALTQYHAAIELDPKSYQAIYRRATTYLAMGRGKAAIVDLERVLELKPDFYGARIQRGNILLKQGELEAAEADFNIVLNHDSSNNDVQEKTALIEQHRQLRHQIKSAYAGGDCATVEEYINHIIEIQVWDASLYRMRAKCLEERGELKKAIHDMRIVSKLSTDSTDTMFETSKLLYTVGDLEESLNVIRECLKLNPDHKSCYPFYKKLRKVVKSLESMKKKVENSDWMACLEEGQKTMKFDPTPSVQLNVFRITNRCQREAGHISEAIAECNEILNDDPSDADILCERAEAHILDEDYDSAIEDYQKATEVNPDHREAKEGLEHAKRLKTQAGKRDYYKILGVKRNASKREITKAYRKLAQKWHPDNFSDEEEKKKAEKKFIDIAAAKEVLQDEEKRRQFDQGVDPLDPEAQRQGGGHHGGFGHGFPHGFHHFGGGGGGEHSFKFNWG", "soluble on expression in E. coli": "not soluble"},
      {"sequence": "MTKCPKCKKIMLTKELDKNMRVCMNCDYHFPMNAKQRIESLMDEQSFEEFNQGMLSENPLGFPGYLEKLEKDREKTSLNEAVVTGKGTIGGHPAVVAVMDSSFRMGSMGSVVGEKITLAIEKAKADKVPFIIFTASGGARMQEGVLSLMQMAKTSSALKLFSEEQGLIISVMTHPTTGGVSASFASLGDYNFAEPGALIGFAGRRIIEQTIGEKLPEDFQTAEFLLKHGQLDAVIHRDDMKKTLENLLDMHQTGGDIEWLQDLEHHHHHH", "soluble on expression in E. coli": "not soluble"},
      {"sequence": "MTKKHREGLSLRAFAKKMRVSPNAVVSRFKTGKFDQALFEDGSVNEALATAIWNENPTKRPAPFLAPDGQPRTKIKQVSTEGANEYEIKLERMQVALESEKIALERLRETTVDREEVKRAAREFGRAHRDAMLNFPHRFGASIAAQVGCDAASLIGAIDYYIRKALLEAVHIPVPFHDPHSPELENLQETNNG", "soluble on expression in E. coli": "not soluble"},
      {"sequence": "MTKKRVALIFGGNSSEHDVSKRSAQNFYNAIEATGKYEIIVFAIAQNGFFLDTESSKKILALEDEQPIVDAFMKTVDASDPLARIHALKSAGDFDIFFPVVHGNLGEDGTLQGLFKLLDKPYVGAPLRGHAVSFDKALTKELLTVNGIRNTKYIVVDPESANNWSWDKIVAELGNIVFVKAANQGSSVGISRVTNAEEYTEALSDSFQYDYKVLIEEAVNGARELEVGVIGNDQPLVSEIGAHTVPNQGSGDGWYDYNNKFVDNSAVHFQIPAQLSPEVTKEVKQMALDAYKVLNLRGEARMDFLLDENNVPYLGEPNTLPGFTNMSLFKRLWDYSDINNAKLVDMLIDYGFEDFAQNKKLSYSFVSLGEEKIGKFN", "soluble on expression in E. coli": "soluble"},
      {"sequence": "MTKLALFVRLEAKPGQEAALADFLASALPLANAESGTTAWFALKFGPSTFGVFDAFADEAGRQAHLNGQIAAALMANAATLLSSPPNIEKVELLAAKLPA", "soluble on expression in E. coli": "soluble"},
      {"sequence": "MTKYIFVTGGVVSSLGKGITAASLGRLLKNRGLNVTIQKFDPYINVDPGTMSPYQHGEVFVTDDGAETDLDLGHYERFIDINLNKYSNVTTGKIYSSVLQKERRGEYLGGTVQVIPHITNEIKERVYRSGRETNADVVITEIGGTVGDIESLPFLEAIRQIKSDIGRDNVMYIHCTLIPYLKAAGEMKTKPTQHSVKELRSLGIQPNIIVVRTEMPVSQDMKDKLALFCDIDTKAVIEARDADTLYAVPLSLQEQNMDQIVCDHLKLDNPAADMTEWTALVEKVRNLSKKTKIALVGKYVELQDAYISVVEALRHAGYSFDTDVEVKWVNAEHVTAENVQELVGDTDGILVPGGFGDRGVEGKIVAIQYARENKVPFLGICLGMQLASIEFARNVLGLEGANSSEINPDTPYAIIDLLPEQKDVEDLGGTLRLGLYPCKLSEETNAYNAYNEPVVYERHRHRYEFNNQFRPDMEKAGFVFSGTSPDGRLVEIIELKDHPWFVAAQFHPELVSRPNRPQPLFHDFVKASLTNKESK", "soluble on expression in E. coli": "not soluble"},
      {"sequence": "MTLIDCCDPQKPSRVLFHFLILDAPSPSNLPTYIKELQHRGVRHLVRVCGPTYDATLVKSRGIDVHSWPFDDGAPPTRAVLDSWLKLLDTELARQQEDPSVPPPTIGVHCVAGLGRAPILVALALVEYGNVSALDAIALIREKRKGAINQTQMHWITKYKR", "soluble on expression in E. coli": "not soluble"},
      {"sequence": "MTLIPPVQAIAGTSAAATQALSPVATPNQALVNRFQALMQSSSPLPPAMQRVGNPSMMSRVVDVQNDGVRTIAEHIDAFSMQAPTMGLQEMAAQQIKLMHELTMVGFNLNVSVGVAQSGKNAVQTLVKNQ", "soluble on expression in E. coli": "not soluble"},
      {"sequence": "MTLNAFIEKLSTQPELIEFTETMAVIESHYEFTPTEFANGNTVNLADQNNGSCKIFAFALLNQLSVDQTLACFGQYYRQDVLENPQGDDHQNIRNFMVTGWAGVQFKAQALQAK", "soluble on expression in E. coli": "not soluble"},
      {"sequence": "MTLNDKYPFTDEDQAIINSYKAVVDGVSALIGEHCEIVLHSLENIEHSAICIANGHNTNRQVGSPITDLALRSLRNMQSESVSKPYFTRAKGSVLMKSVTIAIRNKTQRIIGLLCININLDVPVSQFLQCFMLTEHTNETSSVNFANSVEDLVAQTIEKTIEEVNADRAVANNTKNRQIVLSLYEKGIFDIKDAINLVAERLDISRHTVYLYIRQIKQEQE", "soluble on expression in E. coli": "not soluble"},
      {"sequence": "MTLNITSKQMDITPAIREHLEERLAKLGKWQTQLISPHFVLNKVPNGFSVEASIGTPLGNLLASATSDDMYKAINEVEEKLERQLNKLQHKSESRRADERLKDSFEN", "soluble on expression in E. coli": "soluble"},
      {"sequence": "MTLNSLPLLRMGTVPLASRISTPLSLRLVSLSLERIRCAGTLRAPFPLPLYFSPGEQPLLHMALPLAARQHFLEHGYAIVPNVLSSSVVERIRSAALASTTARFRSFAHLPNVHSLLKSTPKCTDPLQDGLMSHLQKRRYILRYYRDMRRHKRRLRRAAKAFLNGRDVSELGREDMLRLSEMVCAEAQKVWSRGCTSTVKTDLQMLTAINQYRANAWMTNAQLEAVLRDNEEFVKPLSQLAEVVGGVARPVIFGDVPLLREAYGNPVGYHCLAPTIGTRTNARVSKGGGEATAVSMVLFTYTPTPLCLPPFVLRNSQHAVRRQYLHSVHAERLWRPFAPMEADIRDQLRRFQFDASVVGQPLLAAMAGPSSTPAAPVIGPGTVMVVDPHLMMAFGGNMTPQSEVLYRINVVAENARPHLMAPSWIRGWRTMPEEVHFASPVVFPPLYVE", "soluble on expression in E. coli": "not soluble"},
      {"sequence": "MTMDFQITRRYPCSYLPGELARSRIVVTDDTLSDSNTYAQLIQQGYRRSGSLIYRPDCDYCHACIPVRIPVELFDPNRTQRRIWKRHQHLQIAWHPLHFDPVHFDLYQRYQKSRHTNGSMDQDDENGRKQYRDFLLKSTVDSFLVTFHENEQLRMVSIIDRLPDGLSPVYTFFEPDVPGSSYGTFNILWQTAQCRADRLPYLYLGYWIANSRKMHYKANFQPLQYLIDNQWQYRTTNRLEHHHHHH", "soluble on expression in E. coli": "not soluble"},
      {"sequence": "MTMLLSIIVPTFKPQKTYFEECLFSLFNQTMFHYLYEVIVVLNGDIDTQYTDMILDIFAYKPAGLYCRLIKTDQAGVSNARNLGIDAAKGQYIGFVDDDDIVSSDYLEELCKISSRNIVGVSNVHTFRKTIEEKEDNFFACRIIQQRECQYSLFRNRAILAFPVAKLIHRDIIGNRRFNPRFKNGEDALFMTEISDLIGGFRFTKEYTTYYVRERAGSASRRPLKRGQLCWDTFMLIKAYVSIYLSSPFSYNFLLFASRIPGSIKGAIKLSRNTAFFLEHHHHHH", "soluble on expression in E. coli": "not soluble"},
      {"sequence": "MTMRTYKNPYPDSEDAVEIRFDHCREDIAKAAQEYWREMTEAELDDLQEEIMRALAVSEWQNIWLTSAAFITVLAYHFHD", "soluble on expression in E. coli": "not soluble"},
      {"sequence": "MTNEAIQNREPFLQNLREKLDVEKQPVSAHPFEPVNHLPEEQLADKTPAELLTIVKERVETIHTNLVETTQENLLTTIQQIVAEFGGDNLLLPTDARFEAYGLADLAKSLEAVSVKQWQPGSEQREANIQTAAQANIAIAFAEFLLAESGTIVVESNAGQGRALHFLPKHYISIIPFSKLVPRSTQPAAFYTEKIEKGEKIGSAIHFISGPSNSGDIEMQLVVGLHGPLEVCYVVVMDR", "soluble on expression in E. coli": "not soluble"},
      {"sequence": "MTNQKQTTHFGFKSVDWNEKEKKVAEVFHSVAKNYDRMNDLMSLGIHHLWKRYTIELSHVRPGQSVLDLAGGSGDLTRLLLQKVGDSGQVILADINAAMLHVGRDRLLDEGLFKNIRYVQGNAQCLPFADNSFHCITMGFGLRNVTDKDEALQSMYRVCKPGGKLMVLEFSTPVFPGLKPVYDWYSFNILPKIGKFVANDEASYQYLAESIRMHPDQETLKAMIERVGFEDCHYHNLSGGIVALHIAYKYLEHHHHHH", "soluble on expression in E. coli": "not soluble"},
      {"sequence": "MTNSNDIDETAATIDTARALLKSFGFEAQRHNVRSAVTLLALAGLKPGDHWADSTTPRLGVQKIMDWSGAYWAKPYATGSREDFRKKTLRQWVDNGFAVLNPDNLNIATNSQLNEYCLSDEAAQAIRSYGTDAFESALVDFLSKASDTVRARAEALRAAMISVDLADGDEFLLSPAGQNPLLKKMVEEFMPRFAPGAKVLYIGDTRGKHTRFEKRIFEETLGLTFDPHGRMPDLVLHDKVRKWLFLMEAVKSKGPFDEERHRTLRELFATPVAGLVFVNCFENREAMRQWLPELAWETEAWVADDPDHLIHLNGSRFLGPYER", "soluble on expression in E. coli": "soluble"},
      {"sequence": "MTNVLIEDLKWRGLIYQQTDEQGIEDLLNKEQVTLYCGADPTADSLHIGHLLPFLTLRRFQEHGHRPIVLIGGGTGMIGDPSGKSEERVLQTEEQVDKNIEGISKQMHNIFEFGTDHGAVLVNNRDWLGQISLISFLRDYGKHVGVNYMLGKDSIQSRLEHGISYTEFTYTILQAIDFGHLNRELNCKIQVGGSDQWGNITSGIELMRRMYGQTDAYGLTIPLVTKSDGKKFGKSESGAVWLDAEKTSPYEFYQFWINQSDEDVIKFLKYFTFLGKEEIDRLEQSKNEAPHLREAQKTLAEEVTKFIHGEDALNDAIRISQALFSGDLKSLSAKELKDGFKDVPQVTLSNDTTNIVEVLIETGISPSKRQAREDVNNGAIYINGERQQDVNYALAPEDKIDGEFTIIRRGKKKYFMVNYQ", "soluble on expression in E. coli": "soluble"},
      {"sequence": "MTNVQEQDKRKGGRPPTGRVRKLSKSVTVKFSKPSYEALKLRARKANRKLAEYIRESALNGEVVSGHNAETVAIAKNLIGMANNLNQLANLSHQRGFHETHVYVVDLLRRLKEILDEYRQASYKPKPSSMGRKEDTT", "soluble on expression in E. coli": "not soluble"},
      {"sequence": "MTNYIYPKFGYLRSKEQAEGIVKRHPIVVIGAGPVGLTAALDCAARGQPVVLLDDNDTVSIGSRAVCYAKRPLEIWNRLDCADPMVERGVSWNVGKVFFRDELSYQFDLLPESDHEWPAMINLQQYHLEEILVARCRASPLIDLRWKHRLISLKQAADHAELAVETPDGIFTMEAQWVIACDGANSDTRKMVGAEFKGQYFEDRFLIADVAMKADFPTERWFWFDPPFHPAQSVLLHRQADDIWRIDFQLGWDADPDEEKRPERVIPRIKAMLGEDTEFELEWVSIYQFACRRIDKFRHGRVLFAGDAAHQVSPFGARGANTGVQDIDNLAWKLAMVLRGEAPEALLDSYHDERAYAADDNILNSTRATDFITPKTKVSRHFRDAVLELAQHHGFARPLVNSGRLSTPTPYVTSPLNTFDDSLLDGEMRPGTNAADAPVTIGGKPDWFLNCLGAGFVVVTFDQAVDNERIEVGPIAARVIRVGRDIDDPRGVLASRYGTSTGTTYLFRPDQYVAARWAGFDEGKISAALLRATAQDAVRQKEIAALEHHHHHH", "soluble on expression in E. coli": "not soluble"},
      {"sequence": "MTNYKIDFSKGLVPAILQDNQTKQVLMLGYMNQEAFDKTIEDGVVCFYSRSKQRLWTKGETSGHTQRVKDIHVDCDNDTILIDVIPNGPTCHTGSQSCFNTEVPFSVQTLAQTVQDSAQSNNEKSYTKYLLTEGIEKITKKYGEEAFEVVIEAIKGDKKAFVSEVADELYHLFVLMHALGVDFSEIEAELARRHHKRNNFKGERQNIEQWLEHHHHHH", "soluble on expression in E. coli": "not soluble"}
    ]}
  ]
}
